Measurements: PMC2821902 (Biochemistry, 2009)
Like-named read-outs stand apart in the source and are kept apart here.

Experiments:
[1] = molecular target: Dynein light chain LC8 (wild type) (UniProt Q24117); test: NMR; conditions: cited from earlier work
[2] = molecular target: the molecule itself
[3] = molecular target: the molecule itself; test: NMR HSQC peak intensities of monomer and dimer signals in slow exchange
[4] = molecular target: the molecule itself; test: NMR NZ-exchange spectroscopy
[5] = molecular target: the molecule itself; test: NMR NZ-exchange spectroscopy; remark: listed apart in the source
[6] = molecular target: the molecule itself; remark: listed apart in the source

Dynein light chain LC8 (wild type)
KD ([1]; pH high pH (limit (so in the source))): < 1 µM
pKa, His55 of LC8 (dimer) ([1]; pH): < 4.5 pH units
pKa, His55 of LC8 (monomer) ([1]; pH): 6.5 pH units

B1: LC8 Ser88Glu mutant (phosphomimetic) (natural protein)
chain: MSDRKAVIKNADMSEEMQQDAVDCATQALEKYNIEKDIAAYIKKEFDKKYNPTWHCIVGRNFGSYVTHETRHFIYFYLGQVAILLFKEG
KD of the protonation state His55+/His55+, Glu88/Glu88 (from the model) [2]: 25 mM
KD of the protonation state His55+/His55+, Glu88/Glu88− (from the model) [2]: 110 mM
KD of the protonation state His55+/His55+, Glu88−/Glu88− (from the model) [2]: 1.8e+07 mM
KD of the protonation state His55/His55+, Glu88/Glu88 (from the model) [2]: 17 µM
KD of the protonation state His55/His55+, Glu88/Glu88− (from the model) [2]: 6.8 mM
KD of the protonation state His55/His55+, Glu88−/Glu88− (from the model) [2]: 12000 mM
KD of the protonation state His55/His55, Glu88/Glu88 (from the model) [2]: 0.071 µM
KD of the protonation state His55/His55, Glu88/Glu88− (from the model) [2]: 28 µM
Kd [3]: 930 µM
koff [4]: 1.9 to 5.7 s⁻¹
kon [4]: 1200 to 3000 M⁻¹ s⁻¹

B2: wild-type dynein light chain LC8 (natural protein)
chain: MSDRKAVIKNADMSEEMQQDAVDCATQALEKYNIEKDIAAYIKKEFDKKYNPTWHCIVGRNFGSYVTHETRHFIYFYLGQVAILLFKSG
KD of the protonation state His55+/His55+ (from the model) [2]: 21 mM
KD of the protonation state His55/His55 (from the model) [2]: 0.06 µM
KD of the protonation state His55/His55+ (from the model) [2]: 14 µM
koff [5]: 0.05 to 0.24 s⁻¹
kon [5]: 1000 to 3000 M⁻¹ s⁻¹
KD at neutral pH [6]: < 0.1 µM
